± gives the uncertainty stated by the source.
B1: Far upstream element-binding protein 2, residues 142 to 214; numbered along this chain, Q92945 (parent)
chain: RTSMTEEYRVPDGMVGLIIGRGGEQINKIQQDSGCKVQISPDSGGLPERSVSLTGAPESVQKAKMMLDDIVSR
B2: Double-stranded RNA-binding protein Staufen homolog 1, residues 183 to 249; numbered along this chain, O95793 (parent)
chain: KSEISQVFEIALKRNLPVNFEVARESGPPHMKNFVTKVSVGEFVGEGEGKSKKISKKNAAIAVLEEL

Variants of: B1
Test: abundance fitness (aPCA) (normalised: wild type 0, dead -1); higher = more abundant; growth selection in yeast, the domain comes from the species named
Settings: Homo sapiens

Abundance fitness of substitutions, site by site:
T54: Y 0.028 ± 0.092 | S -0.059 ± 0.045 | V -0.058 ± 0.046 | R -0.256 ± 0.041 | M -0.182 ± 0.062 | K -0.16 ± 0.074 | L -0.256 ± 0.047 | N -0.327 ± 0.088 | Q -0.158 ± 0.06 | W -0.393 ± 0.061 | I -0.205 ± 0.078 | P -0.855 ± 0.057
I70: A -0.295 ± 0.046 | E -0.416 ± 0.055 | W -0.319 ± 0.052 | S -0.504 ± 0.051 | K -0.395 ± 0.062 | F -0.235 ± 0.076 | R -0.568 ± 0.043 | P -0.555 ± 0.06 | T -0.344 ± 0.052 | D -0.574 ± 0.073 | G -0.497 ± 0.045 | C -0.141 ± 0.067 | L 0.051 ± 0.041 | V -0.059 ± 0.045 | Y -0.153 ± 0.081
R73: V -0.074 ± 0.049 | E -0.013 ± 0.055 | W -0.201 ± 0.061 | T 0.124 ± 0.063 | C 0.108 ± 0.083 | A 0.034 ± 0.057 | L -0.004 ± 0.054 | G 0.177 ± 0.043 | K 0.016 ± 0.069 | S 0.055 ± 0.06 | F -0.162 ± 0.19 | I 0.027 ± 0.1 | H -0.099 ± 0.15 | D 0.021 ± 0.076
G55: A -0.882 ± 0.064 | Q -0.875 ± 0.098 | F -1.41 ± 0.28 | P -0.937 ± 0.087 | W -1.83 ± 0.19 | T -0.732 ± 0.075 | C -0.818 ± 0.1 | L -1.18 ± 0.084 | V -1.17 ± 0.072 | E -0.927 ± 0.09 | I -1.5 ± 0.28 | M -1.18 ± 0.16 | N -0.922 ± 0.25 | R -0.965 ± 0.054 | H -0.887 ± 0.12 | D -0.83 ± 0.087 | K -0.681 ± 0.093 | Y -0.878 ± 0.19
P57: T -0.325 ± 0.061 | G -0.434 ± 0.048 | H -0.213 ± 0.084 | Y -0.402 ± 0.099 | E -0.259 ± 0.059 | L -0.316 ± 0.049 | R -0.141 ± 0.039 | D -0.609 ± 0.091 | W -0.24 ± 0.059 | M -0.225 ± 0.066 | A -0.101 ± 0.049 | S -0.245 ± 0.05 | F -0.357 ± 0.084 | I -0.289 ± 0.099 | V -0.192 ± 0.049 | K -0.185 ± 0.071 | C -0.432 ± 0.082
S72: P -0.282 ± 0.056 | T -0.042 ± 0.052 | N 0.026 ± 0.076 | I -0.086 ± 0.069 | Y -0.079 ± 0.074 | M -0.024 ± 0.06 | W -0.191 ± 0.052 | V -0.085 ± 0.045 | R 0.052 ± 0.039 | C -0.116 ± 0.067 | L -0.103 ± 0.043 | H 0.019 ± 0.066 | D -0.032 ± 0.061 | F -0.176 ± 0.075 | E 0.007 ± 0.054 | K -0.048 ± 0.062 | G 0.118 ± 0.04 | A 0.016 ± 0.046
M65: A -0.008 ± 0.043 | W -0.211 ± 0.05 | H -0.066 ± 0.078 | C 0.011 ± 0.061 | V 0.008 ± 0.046 | K 0.067 ± 0.059 | D 0.02 ± 0.072 | I -0.025 ± 0.075 | F -0.136 ± 0.089 | R -0.023 ± 0.037 | S 0.025 ± 0.044 | N 0.017 ± 0.076 | Q 0.131 ± 0.052
S59: W -0.968 ± 0.084 | H -0.081 ± 0.063 | L -0.619 ± 0.049 | N -0.062 ± 0.097 | V -0.326 ± 0.046 | F -0.528 ± 0.1 | A 0.008 ± 0.043 | D 0.003 ± 0.06 | Q -0.037 ± 0.051 | C -0.063 ± 0.057 | K -0.216 ± 0.068 | G -0.149 ± 0.039 | M -0.206 ± 0.054 | I -0.848 ± 0.12 | Y -0.727 ± 0.092 | R -0.373 ± 0.039 | P -0.769 ± 0.058
L67: P -0.652 ± 0.064 | D -0.462 ± 0.064 | M -0.055 ± 0.053 | W -1.06 ± 0.063 | F -0.41 ± 0.072 | Q -0.64 ± 0.064 | V -0.327 ± 0.043 | N -0.601 ± 0.065 | Y -0.84 ± 0.12 | H -0.564 ± 0.084 | S -0.553 ± 0.048 | K -0.582 ± 0.056 | A -0.5 ± 0.045 | G -0.602 ± 0.038 | I 0.041 ± 0.069 | R -0.778 ± 0.042 | T -0.562 ± 0.059
D69: I -0.262 ± 0.09 | E -0.002 ± 0.052 | C -0.133 ± 0.071 | L -0.143 ± 0.051 | G -0.057 ± 0.04 | M -0.13 ± 0.064 | H -0.165 ± 0.075 | A -0.019 ± 0.043 | F -0.284 ± 0.092 | S -0.122 ± 0.049 | V -0.181 ± 0.046 | W -0.321 ± 0.057 | T -0.103 ± 0.051 | P -0.589 ± 0.058 | N -0.094 ± 0.066 | K -0.043 ± 0.064 | Q -0.097 ± 0.061 | Y -0.27 ± 0.09
A63: N -0.661 ± 0.18 | Y -0.811 ± 0.29 | Q -0.654 ± 0.085 | P -0.648 ± 0.066 | L -1.46 ± 0.13 | R -0.865 ± 0.054 | S -0.782 ± 0.066 | G -0.447 ± 0.044 | T -0.69 ± 0.078 | V -0.748 ± 0.062 | M -1.24 ± 0.13 | D -0.666 ± 0.14 | C -0.222 ± 0.082 | H -0.528 ± 0.21 | W -1.55 ± 0.2
V71: D -0.458 ± 0.073 | P -0.553 ± 0.059 | Y -0.22 ± 0.1 | E -0.485 ± 0.052 | C -0.052 ± 0.064 | K -0.174 ± 0.057 | F -0.157 ± 0.11 | W -0.211 ± 0.051 | Q -0.296 ± 0.06 | A -0.142 ± 0.046 | I -0.057 ± 0.079 | L 0.001 ± 0.046 | N -0.461 ± 0.1 | G -0.294 ± 0.039 | T -0.032 ± 0.051 | R -0.224 ± 0.04 | M -0.037 ± 0.061
M66: T -0.661 ± 0.059 | I -0.254 ± 0.076 | V -0.456 ± 0.051 | F -0.383 ± 0.1 | Q -0.301 ± 0.063 | D -0.529 ± 0.072 | S -0.428 ± 0.05 | N -0.688 ± 0.13 | K -0.462 ± 0.066 | A -0.185 ± 0.045 | P -0.532 ± 0.054 | H -0.523 ± 0.08 | Y -0.379 ± 0.086 | E -0.514 ± 0.056 | G -0.652 ± 0.047 | L -0.041 ± 0.046 | W -0.473 ± 0.054 | R -0.512 ± 0.042 | C -0.427 ± 0.069
K64: P -0.687 ± 0.07 | M -0.457 ± 0.062 | G -0.757 ± 0.041 | N -0.703 ± 0.08 | V -0.465 ± 0.044 | R -0.016 ± 0.037 | Q -0.422 ± 0.063 | T -0.445 ± 0.058 | I -0.275 ± 0.075 | E -0.653 ± 0.054 | S -0.553 ± 0.049 | A -0.558 ± 0.045 | C -0.554 ± 0.069 | Y -0.926 ± 0.12 | W -0.662 ± 0.049 | D -0.567 ± 0.067 | H -0.442 ± 0.079
Q61: H -0.196 ± 0.11 | S -0.06 ± 0.051 | T -0.018 ± 0.053 | I -0.064 ± 0.095 | W -0.176 ± 0.058 | V -0.102 ± 0.049 | P -0.618 ± 0.062 | K 0.045 ± 0.062 | R 0.013 ± 0.04 | M -0.051 ± 0.064 | E 0.01 ± 0.06 | C -0.164 ± 0.071 | A 0.015 ± 0.048 | D -0.168 ± 0.076 | N 0.016 ± 0.12 | G -0.053 ± 0.044 | L -0.109 ± 0.05 | F -0.106 ± 0.074
K62: S -0.194 ± 0.042 | A -0.173 ± 0.044 | E -0.286 ± 0.057 | I -0.126 ± 0.085 | F -0.625 ± 0.098 | D -0.663 ± 0.076 | M -0.068 ± 0.057 | W -0.541 ± 0.053 | Q -0.048 ± 0.052 | C -0.288 ± 0.062 | L -0.169 ± 0.043 | T -0.204 ± 0.05 | G -0.51 ± 0.043 | N -0.449 ± 0.094 | H -0.231 ± 0.07 | Y -0.278 ± 0.098 | V -0.127 ± 0.046
V60: K -0.377 ± 0.069 | N -0.636 ± 0.1 | I 0.119 ± 0.073 | C -0.355 ± 0.079 | S -0.741 ± 0.06 | F -0.82 ± 0.12 | H -0.727 ± 0.11 | Y -0.763 ± 0.18 | A -0.689 ± 0.05 | R -0.016 ± 0.037 | M -0.265 ± 0.067 | L -0.191 ± 0.047 | W -1.26 ± 0.089 | E -0.773 ± 0.068 | G -0.745 ± 0.044 | Q -0.586 ± 0.065 | D -0.789 ± 0.089
D68: E -0.06 ± 0.049 | Q -0.116 ± 0.054 | A -0.188 ± 0.044 | N -0.007 ± 0.061 | K -0.098 ± 0.053 | G -0.144 ± 0.039 | F -0.469 ± 0.081 | V -0.456 ± 0.046 | L -0.564 ± 0.043 | T -0.278 ± 0.045 | H -0.241 ± 0.068 | P -0.882 ± 0.063 | M -0.337 ± 0.054 | W -0.62 ± 0.054 | R -0.126 ± 0.036 | I -0.494 ± 0.077 | C -0.372 ± 0.062 | S -0.138 ± 0.04
E58: N -0.275 ± 0.11 | V -0.209 ± 0.051 | R -0.198 ± 0.039 | K -0.065 ± 0.068 | F -0.405 ± 0.11 | G -0.124 ± 0.042 | D -0.035 ± 0.088 | M -0.125 ± 0.061 | W -0.335 ± 0.053 | H -0.071 ± 0.087 | A -0.088 ± 0.05 | C -0.305 ± 0.08 | Q -0.122 ± 0.059 | S -0.102 ± 0.047 | T -0.174 ± 0.055 | Y -0.203 ± 0.1 | P -0.305 ± 0.052
A56: L -0.1 ± 0.048 | I -0.126 ± 0.11 | Q -0.1 ± 0.063 | C 0.088 ± 0.074 | R 0.012 ± 0.041 | K -0.153 ± 0.075 | F -0.315 ± 0.084 | S -0.008 ± 0.052 | N -0.272 ± 0.11 | G -0.114 ± 0.041 | V -0.099 ± 0.051 | H 0.026 ± 0.081 | Y -0.091 ± 0.095 | E -0.003 ± 0.058 | T 0.113 ± 0.051 | W -0.281 ± 0.057 | M -0.154 ± 0.08 | D -0.025 ± 0.077

Variants of: B2
Test: as above
Settings: Homo sapiens

Abundance fitness, by site and new letter:
K1: C -0.177 ± 0.1 | A -0.436 ± 0.11

Source: the Human Domainome abundance scans (Beltran et al. 2025)
